{
  "source": "patent US20130177528A1",
  "about": "“COMPOSITIONS AND METHODS FOR INHIBITING VIRAL INFECTION” (WESTERN UNIVERSITY OF HEALTH SCIENCES, priority 2011, published 2013)",
  "molecules": {"B1": {"name": "contortrostatin (protein)", "chain": "DAPANPCCDAATCKLTTGSQCADGLCCDQCKFMKEGTVCRRARGDDLDDYCNGISAGCPRNPFHA"}},
  "key": {"[1]": {"system": "HSV-1 strains F, G, and MP", "assay": "Infection of nectin-1 CHO Igβ cells by clinical HSV-1 strains, virus pre-incubated (Example 4)", "type": "cell-based, herpes simplex virus type-1", "conditions": "MP at 25 pfu/cell pre-incubated 90 min", "method": "In this experiment different clinical strains of HSV-1 (F, G, and MP strains of HSV-1 [37] at 25 pfu/cell) were either pre-incubated with 1×PBS (control) or with CN at the concentrations indicated in FIG. 8, panel A for 90 min at room temperature. After 90 min of incubation the two pools of viruses were incubated with Nectin-1 receptor expressing CHO Igβ cells that express β-galactosidase upon viral entry as described. The viral infection blocking was measured by ONPG assay (FIG. 8, panel A). Similar experiment was conducted using Lac Z encoded HSV-2 (333 gJ-reporter virus). HSV-2 is a genital herpes virus. […] Each value shown is the mean of three or more determinations (±SD)."}, "CMV Ad169": {"system": "CMV Ad169", "assay": "CMV plaque assay in RPE cells (Example 5)", "type": "cell-based, Cytomegalovirus", "conditions": "virus pre-incubated with 1 mg/ml for 120 min, MOI 0.01, 3 days", "method": "Viral plaque assay. Confluent layers of RPE cells in glass bottom dishes were infected with CMV Ad169 strain in the presence and absence of CN at 0.01 PFU per cell for 2 hrs. This was followed by extensive but gentle washing three times with DMEM media followed by feeding cells with DMEM media. The cells were then incubated at 37° C. for thee days. Cells were then fixed using fixative buffer after 3 days for 30-45 min. The cells were washed three times with 1X PBS before RPE cells stained for Giemsa satin for additional 45 minutes. This was followed by 10 times washing with 1 X PBS to remove excess stain. The number of plaques formed were then visualized and quantified as indicated. In another protocol, confluent layers of HeLa cells (approximately 10^6) in six-well dishes were infected with HSV-1 (804) strain at 0.01 PFU/celI in presence and absence of CN for 2 h at 37° C. After removal of inoculum, monolayers were overlaid with DMEM comaining 2.5% heat-inactivated calf serum and incubated at 37° C. At 24 h, the cells were fixed by using fixative buffer (2% formaldehyde and 0.2% glutaradehyde) at room temperature for 20 min, followed by Giemsa staining for 45 min. The cells were again washed 5× in PBS and the numbers of plaques were counted. The images were taken by using Nikon D-Eclipse-C1 microscope (Nikon Instruments Inc., Melville, N.Y., USA).\nA wild type strain of CMV Ad169 was used. The virus was again either pre-incubated with 1×PBS (control) or with CN at 1 mg/ml for 120 min at room temperature. After 120 min of incubation the two pools of viruses were incubated on target retinal pigment epithelial (RPE) cells at MOI (multiplicity of infection; MOI) of 0.01 for additional 2 hrs at 37° C. This was followed by washing to remove unbound viruses and feeding cells with fresh DMEM media. The plates were kept for 3 days before the plaque formation was visually observed (upper panels) and quantified (lower panel) after fixing cells with buffer (FIG. 9). […] Based on visual evidence, the plaque formation was quantified in each group and was scored (lower panel)."}, "[2]": {"system": "β-galactosidase-expressing recombinant Adenovirus", "assay": "Adenovirus infection of HeLa cells (Example 7)", "type": "cell-based", "conditions": "pre-incubated 90 min", "method": "HeLa cells were infected with a β-galactosidase-expressing recombinant Adenovirus were pre-incubated with CN at (1) the dilution indicated in FIG. 11, panel A (stock concentration 22 nM) or (2) the concentrations indicated in FIG. 11, panel B, or mock treated with 1 X phosphate saline buffer for 90 min at room temperature. After 12 hr, the cells were washed, permeabilized and incubated with ONPG substrate (3.0 mg/ml) for quantitation of β-galactosidase activity expressed from the input viral genome. Positive (Pos) infected with virus alone; Negative (Neg) uninfected control. The enzymatic activity was measured at an optical density of 410 nm (OD 410)."}, "[3]": {"system": "HSV-1 glycoproteins (gB, gD, gH-gL) mediated cell-to-cell fusion", "assay": "Virus-free HSV-1 glycoprotein-mediated cell-to-cell fusion assay (Example 12)", "type": "cell-based, human", "method": "FIG. 15A-B show the inhibition of HSV-1 glycoprotein-induced cell-to-cell fusion by CN and proposed model for CN-based anti-HSV-1 activity during cell entry. (A) In this experiment the naturally susceptible target human corneal fibroblasts (CF) cells expressing gD-receptors and luciferase gene were pre-incubated with 1 μM contortrostatin (CN) and mixed in 1:1 ratio with the effector Chinese hamster ovary (CHO-K1) cells expressing herpes simplex virus type-1 (HSV-1) glycoproteins (gB, gD, gH-gL) along with T7 plasmid (white bar indicated as treated [Tr]). In parallel, CN-untreated CF cells were similarly mixed with effector cells as positive control (+; black bar). The target CF cells co-cultured with effector cells devoid of HSV-1 glycoproteins were considered as negative control (−; grey bar). Membrane fusion as a means of viral spread was detected by monitoring luciferase activity. Relative luciferase units (RLUs) were determined using a Sirius luminometer (Berthoid Detection Systems, Titertek Instruments, Inc., Huntsville, Ala., USA). Error bars represent SD. (B) A cartoon illustrates the CN-mediated HSV-1 inhibition that might affect three major steps (a-c) that are involved during HSV-1 entry. (a) CN (presented by hatching) binding to host cell surface integrin (presented by α and β subunits) may affect HSV -1 glycoprotein H (gH) binding to integrins. […]"}},
  "data": [
    {"molecule": "B1", "values": [
      {"measurement": "HSV-1 infection blocking activity across viral strains (ONPG assay)", "setting": "[1]", "result": "not viral-strain specific"},
      {"measurement": "CMV cytopathic effect (CPE)", "setting": "CMV Ad169", "result": "significantly lower cytopathic effect"},
      {"measurement": "CMV plaque formation", "setting": "CMV Ad169", "result": "significantly reduced the plaque formation"},
      {"measurement": "size of CMV plaques", "setting": "CMV Ad169", "result": "small compared to untreated CMV virions"},
      {"measurement": "Adenovirus infection of HeLa cells (β-galactosidase activity, OD 410)", "setting": "[2]; 12 hr", "result": "blocks infection"},
      {"measurement": "IC50", "setting": "[2]; β-galactosidase read after 12 hr", "result": 2.75, "unit": "nM"},
      {"measurement": "polykaryocyte formation", "setting": "[3]; CN-treated target cells co-cultured with effector cells, data not shown", "result": "failed to form polykaryons"},
      {"measurement": "cell-to-cell fusion (luciferase activity, RLU)", "setting": "[3]; target human CF treated with 1 μM, effector CHO-K1 cells expressing gB, gD, gH-gL, 1:1", "result": "impaired cell-to-cell fusion"}
    ]}
  ]
}
